Legend:
[1] = target: H1 HA from A/Norway/3206-3/2009 H1N1, recombinant (IRR FR-697) (Influenza A virus A/Norway/3206-3/2009 …, UniProt C3W5S1, strain); assay: ELISA
[2] = target: H1 HA from A/California/04/2009 H1N1pdm09, recombinant (Immune Technology) (Influenza A virus A/California/04/2009 …, UniProt C3W5S1, strain); assay: ELISA
[3] = target: H1 HA from A/Solomon Islands/3/2006 H1N1, recombinant (IRR FR-67) (Influenza A virus A/Solomon …, UniProt A7Y8I1, strain); assay: ELISA
[4] = target: H1 HA from A/Brisbane/59/2007 H1N1, recombinant (IRR FR-65) (Influenza A virus A/Brisbane/59/2007 …, UniProt D5F1Q8, strain); assay: ELISA
[5] = target: T1, H1 HA from A/Michigan/45/2015 H1N1, recombinant (Immune Technology) (Influenza A virus A/Michigan/45/2015 …, UniProt A0A1J0CXU0, strain); assay: ELISA
[6] = target: T1, H1 HA from A/Michigan/45/2015 H1N1, …; assay: BLI

Measured: binding result

B1: 05.GC.w13.02 (antibody, V domains shown)
VH: QVQLVQSGTEVKKPGSSVKVSCKASGVTFSSYAMSWVRQAPGQGLEWMGGFIPILGTANYAQKFQGRLTITADGLTGTVYMELSRLRSEDTAVYYCAREVTWKGASIGVLGIWGQGTMVSVSA
VL: DIQMTQSPSSLSASVGDRVIITCRANQSIGGYLNWYQQKPGKAPNLLIFTASTLQSGVPSRFSGGGSGTDFTLTISSLQPEDFATYYCQQNYNTPRTFGQGTKVDIK
not listed: [6]
binds: all other assays above

B2: 05.GC.w13.01 (antibody, V domains shown)
VH: QVQLVQSGAEVKKPGSSVKVSCEASGVTFSSYAVSWVRQAPGQGLEWMGGIIPIVGTANYAQKFQGRVTITADGLTSTVYMELSRLRSEDTAVYFCAREATWKGSSIGVLGIWGQGTMVTVSA
VL: DIQMTQSPSSLSASVGDRVTITCRASQSISDYLNWYQQKPGKAPSLLIFSASTLQSGVPSRFSGSGSGTDFTLTISSLQPEDFATYYCQQNYNTPRTFGQGTKVEIK
not listed: [6]
binds: all other assays above

B3: 05.GC.w13.02 Fab, His6 tag removed with thrombin (Fab, V domains shown)
VH: QVQLVQSGTEVKKPGSSVKVSCKASGVTFSSYAMSWVRQAPGQGLEWMGGFIPILGTANYAQKFQGRLTITADGLTGTVYMELSRLRSEDTAVYYCAREVTWKGASIGVLGIWGQGTMVSVSA
VL: DIQMTQSPSSLSASVGDRVIITCRANQSIGGYLNWYQQKPGKAPNLLIFTASTLQSGVPSRFSGGGSGTDFTLTISSLQPEDFATYYCQQNYNTPRTFGQGTKVDIK
binds: [6]

B4: 05.GC.w2.3C10 (antibody, V domains shown)
VH: EVQLVQSGAEVKKPGSSVRVSCKASGGTFSAISWVRQAPGQGLEWMGGIIPVFGTANYAQKFQGRVTITADDSTSTAYMEVSSLRSDDTAVYYCAREETWKGATIGVMGIWGQGTMVTVSS
VL: DIQMTQSPSSLSASVGDRVTITCRASQSISSYLNWYQHKPGKAPKLLIFTASNLQSGVPSRFSGGGSGTDFTLTISSLQPEDFATYYCQQSYTSPRTFGQGTKVEIK
binds: [3] | [4] | [5]

From publication PMC11211068 (The Journal of Experimental Medicine, 2024)
